# Laboratory results as given in the supplement of paper PMC12042874.
# ± gives the uncertainty stated by the source.
# Assay: amyloid nucleation score (Sup35N fusion, yeast selection) (log enrichment); library NNK1; higher = more nucleation; inactive = no reads after selection
# Method in brief: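 Sup35N was fused to peptides of 20 random codons and expressed in psi-negative yeast, which were induced with 100 μM copper sulfate for 24 hours and then grown on medium lacking adenine and uracil for 7 days at 30°C. Plasmid inserts from input and output were sequenced on Illumina. The nucleation score is the DiMSum log enrichment of output over input reads, centred on the mode score of non-aggregating sequences. Sequences with under 100 input reads were left out, and random libraries had three technical output replicates.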
row,Substance,amyloid nucleation score
1,IERKLCKIGVMK,0.597 ± 0.65
2,KVCLRRAAYYRVLVHSCHFR,-0.585 ± 0.43
3,RFDYGGIESGVAGCVRVRDY,0.473 ± 0.67
4,VYLFSVLVDVSRMSNGMLTR,-0.211 ± 1.2
5,SRLMV,0.547 ± 0.71
6,CRKVITRVGSVTVTGGFYLI,-0.374 ± 0.67
7,RASILCA,0.268 ± 0.66
8,MRAEVALFCGNSASVVCGAW,-0.221 ± 0.34
9,LCCYAVYGLCLMHTYNWGCD,0.564 ± 0.73
10,SSGRRWWTFQHHQIYLKVRS,1.09 ± 0.59
11,DKNVSRFIPNEMLCLKPWAP,1.19 ± 0.9
12,TRQNMFGIHHPWYNRRIS,-0.458 ± 0.42
13,FQVFYFGCGRHVMVSSYRWV,-0.363 ± 0.54
14,RTPVLSCWWFEYMELRGQST,-0.412 ± 1.7
15,RKEISGLMVLLEANLVTWFV,-0.085 ± 0.3
16,RAMKWLYVSNNDNMRKHFFS,-0.712 ± 0.42
17,MNDVNLFMEYNKSFYVDFYM,1.61 ± 0.15
18,RFLRAPGLCSVCSCE,-0.729 ± 0.85
19,LDGTAYVDFVVCLEGGTDVI,-0.18 ± 0.37
20,RLCFRASRETFLCNRFNY,inactive
21,DRRIEYVVDLGSSCGMTTHV,0.049 ± 0.41
22,SNALVFNFSRHAFVNIVFVY,4.04 ± 0.13
23,VITTNLTCFALSYAAVFISK,3.69 ± 0.078
24,PLNKSEAESLFKLLTLLDRN,-1.39 ± 0.46
25,NVNHSPSGMARRGSHRYKNS,-0.218 ± 0.34
26,DYCRLMAWLSL,0.315 ± 0.51

row,Substance,amyloid nucleation score
1,AVVWDTIYNKTKPLVRP,0.57 ± 0.93
2,NSRGVSSKYCFGKRIPDGGL,0.117 ± 0.3
3,YMLSDLITCLCVAEELFRGQ,4.81 ± 0.098
4,MCLFENMFDHFSGSLQSHGG,0.318 ± 0.27
5,ICSWVHDQWAFYYISLYYVK,-1.2 ± 0.74
6,VFLMLEVCLMV,0.362 ± 0.72
7,PLRNGWFLRKLRS,-1.35 ± 1.3
8,YKGYYCGSDDFPDSEKPEDG,-0.256 ± 0.32
9,FLRVILRVYLAVLRGNRQCN,-0.716 ± 0.36
10,LDRKIK,0.651 ± 0.39
11,EMAFISYH,0.4 ± 1.1
12,ALLPKFCDIKFVVEKNGENR,0.181 ± 1.4
13,KLFSK,inactive
14,VYSYYLLLGLW,3.66 ± 0.084
15,FDNAPMSDLG,0.405 ± 0.72
16,ITVSYDKGFSFNLWGIHFKV,0.071 ± 0.28
17,GCGRGMLLGFAPWITCPWMS,0.971 ± 0.49
18,AYSRNYYQYAVNEFGDVVFE,0.312 ± 1.1
19,SVTWSYVTHLLLWLFGGAGL,0.848 ± 0.76
20,CFVMLFDRYVNLLIGNQLWY,0.145 ± 0.35
21,MMLLYCRLIWSPISDRICQF,-0.498 ± 0.42
22,THSSGINVTPPDVCSLITLT,-0.159 ± 1.2
23,DATCLESLALSYKG,-0.573 ± 0.41
24,GVKSQYALNKLGCGELWLRL,0.364 ± 0.28
25,FSALLIPENISD,-1.25 ± 1.7
26,SLCTFLGFWGHVFSLRVNRL,-0.156 ± 1.1

row,Substance,amyloid nucleation score
1,LPGMVSL,0.33 ± 0.42
2,FTISGLYSFFVSLLGKEYYG,-0.074 ± 0.43
3,SSMWFYLRM,-0.595 ± 1.9
4,FRNCVF,-0.141 ± 0.49
5,THMGRTLSCFGMMSWSSDVA,5.88 ± 0.065
6,YSHYNTIGLYILSKVSSMAV,inactive
7,SGPHGRFDARSMLAIL,-0.773 ± 0.64
8,GTSSYMV,-0.01 ± 0.23
9,TPFVMIKDGKADFVILNVYH,7.077 ± 0.055
10,SERVMEWGTLKLYDSVHCVL,-1.55 ± 2.7
11,RFRKHRFVVLLCYWCLVFRE,0.766 ± 1.2
12,TSRSSVFRVAFHCGGSDSLV,0.039 ± 0.43
13,IDRSLETTTVRGLVVRCYNG,0.369 ± 0.35
14,SRVRHFVSFFTV,-0.333 ± 0.58
15,EFYYMKLRYRVRRKF,-0.716 ± 0.45
16,ENQPVPLQDLKGAV,-0.352 ± 1.2
17,VGFYWNGWTTKGCWDNSWVL,0.382 ± 0.55
18,IGCSCGLHT,inactive
19,NATNLENQKFTEDALKSPGW,-0.037 ± 0.71
20,QQSFVTSLVMYVDRYRFVQV,0.809 ± 0.85
21,RRRIEHAALVCV,0.055 ± 1.1
22,VRSYDRMFYRDPQDLL,-0.077 ± 0.22
23,IHVLADIYCVWGGLKEFWTS,0.374 ± 0.65
24,SQFLLYSPINFLCFAENHNG,6.36 ± 0.078
25,NRHEILHIVG,1.67 ± 0.63
26,LHVRVCMYADMLSFYGSFAY,2.68 ± 0.085

row,Substance,amyloid nucleation score
1,TKWLLFLVRTRHVMMCGGVM,inactive
2,INRTTRNLLSRCRWYNCYKR,0.155 ± 1
3,SIQNPLNLVDNLPTT,-0.114 ± 0.21
4,FMGIGPDVEDLLW,-0.538 ± 0.41
5,VDGGMLSHYYYC,0.258 ± 0.23
6,YLWILDMAREDELHATCSGE,-0.558 ± 0.66
7,WVAVRDMKGYRSRKKGQSWH,0.199 ± 0.5
8,EYGVSLV,0.089 ± 0.53
9,HSHKGGWEWVSWLRREYWIA,0.618 ± 0.47
10,SISVNTFLRPQLRWM,6.509 ± 0.061
11,NVCLLGRLRFYVVLTGIRDL,-0.34 ± 0.74
12,SFLKVGFL,-0.399 ± 1.1
13,IDSYITNKGSRSAKCHPDDS,-0.701 ± 1
14,TLQTTWLKNLGDLSSSREAS,-0.184 ± 0.41
15,ACVMRIDAFFMTISVRLLRL,1.79 ± 0.3
16,TGSLVFLTLTLLLVCYLPIT,0.302 ± 0.43
17,ASRIHYWWS,0.787 ± 0.25
18,YYEAGQEPVNGMCSP,0.07 ± 1.1
19,RHGKASSSEWNAYRARDRGV,0.761 ± 0.82
20,RYVLFALWWYKVGAEIYNKV,0.48 ± 0.69
21,NRAMQVFPI,inactive
22,IVFLVLRTANRMWNDYHAS,-0.075 ± 0.33
23,YIDKG,-0.893 ± 1.9
24,CIYIWCGVFGSYFGFLVLAA,0.18 ± 0.49
25,YVFSG,-0.202 ± 0.32
26,WRGGKRHVAIFSISYSGTN,0.9 ± 0.57

row,Substance,amyloid nucleation score
1,LCMKFSAVFWELKRV,0.498 ± 0.52
2,HHLVLQRD,0.347 ± 0.28
3,QIWTFRGRVLVGHTSREVVG,0.122 ± 0.24
4,LACYDQPATSRSTAGSCPVP,1.55 ± 0.7
5,DDRTKLQLSMRWEQQIMRHR,3.48 ± 0.12
6,AALTCLCCWAFFVISKNNYQ,0.995 ± 0.58
7,VHLSGFVSLNLTVVSIRCIA,2.06 ± 0.31
8,KLIVWDKCSTCHSDVVLLFK,0.734 ± 0.97
9,VCWLGIKCVRVISNWLCAQS,-1.04 ± 1.6
10,MFSRF,0.607 ± 0.79
11,RRIRFNIRFTTCL,0.802 ± 0.74
12,TYARLLNCSAYSTTF,0.048 ± 0.55
13,NESRM,1.08 ± 0.58
14,YRMIIVGLCFMVVHMAASRK,0.514 ± 0.69
15,RTNSWAESHRSHCVCATSCG,-0.743 ± 0.6
16,DKTGLGRRGPIIFSLSFRWS,-1.55 ± 1.4
17,NCLRNWHKFI,-0.845 ± 0.7
18,SRRCLLKNISSPCF,-1.82 ± 0.87
19,TWIMIGDHFVAGLGYRERD,-0.893 ± 0.43
20,IHKAKISWFLCYMLDDT,0.097 ± 0.33
21,SMCTCLRMGRLPIQVFSWSG,-1.52 ± 2.7
22,IVDCYSLDRYRVLLWSS,0.566 ± 0.36
23,RNCWGANLFDMWIRKSFR,0.067 ± 0.77
